Laboratory results: patent US20260256915A1 (published 2026)
Where a chain is given by its changes, count along the chain named.

T1: PRAME peptide on HLA-A*02:01 (human)
T1 peptide: SLLQHLIGL

B1: nwTCR-2159 (TCR, V domains shown)
Valpha: QQPVQSPQAVILREGEDAVINCSSSKALYSVHWYRQKHGEAPVFLMILLKGGEQKGHDKISASFNEKKQQSSLYLTASQLSYSGTYFCGTESGRGSTLGRLYFGRGTQLTVWP
Vbeta: DSGVTQTPKHLITATGQRVTLRCSPRSGDLSVYWYQQSLDQGLQFLIQYYNGEERAKGNILERFSAQQFPDLHSELNLSSLELGDSALYFCASSPWTSGSYEQYFGPGTRLTVT
B2: nwTCR-2718 (TCR, V domains shown)
Valpha: GQQLNQSPQSMFIQEGEDVSMNCTSSSIFNTWLWYKQDPGEGPVLLIALYKAGELTSNGRLTAQFGITRKDSFLNISASIPSDVGIYFCAGFSQGGSEKLVFGKGTKLTVNP
Vbeta: B1 Vbeta with S98A, S100G, Y101N, E102T, Q103I, P107E, T109S, R110W, T114V
B3: nwTCR-2286 (TCR, V domains shown)
Valpha: GQQLNQSPQSMFIQEGEDVSMNCTSSSIFNTWLWYKQDPGEGPVLLIALYKAGELTSNGRLTAQFGITRKDSFLNISASIPSDVGIYFCAGPEDDKIIFGKGTRLHILP
Vbeta: B1 Vbeta with T97L, S98Q, S100G, Y101N, Y104F, T114L
B4: nwTCR-2418 (TCR, V domains shown)
Valpha: DQQVKQNSPSLSVQEGRISILNCDYTNSMFDYFLWYKKYPAEGPTFLISISSIKDKNEDGRFTVFLNKSAKHLSLHIVPSQPGDSAVYFCAASGVRGQNFVFGPGTRLSVLP
Vbeta: B1 Vbeta with T97L, S98A, S100G, Y101R
B5: nwTCR-2614 (TCR, V domains shown)
Valpha: AQTVTQSQPEMSVQEAETVTLSCTYDTSENNYYLFWYKQPPSRQMILVIRQEAYKQQNATENRFSVNFQKAAKSFSLKISDSQLGDTAMYFCAFDNNARLMFGDGTQLVVKP
Vbeta: GAVVSQHPSWVICKSGTSVKIECRSLDFQATTMFWYRQFPKQSLMLMATSNEGSKATYEQGVEKDKFLINHASLTLSTLTVTSAHPEDSSFYICSATRDSSYNEQFFGPGTRLTVL
B6: nwTCR-2316 (TCR, V domains shown)
Valpha: TQLLEQSPQFLSIQEGENLTVYCNSSSVFSSLQWYRQEPGEGPVLLVTVVTGGEVKKLKRLTFQFGDARKDSSLHITAAQPGDTGLYLCAGVDNYGQNFVFGPGTRLSVLP
Vbeta: DAGVIQSPRHEVTEMGQEVTLRCKPISGHNSLFWYRQTMMRGLELLIYFNNNVPIDDSGMPEDRFSAKMPNASFSTLKIQPSEPRDSAVYFCASSIAALGFGELFFGEGSRLTVL
B7: nwTCR-2081 (TCR, V domains shown)
Valpha: GEDVEQSLFLSVREGDSSVINCTYTDSSSTYLYWYKQEPGAGLQLLTYIFSNMDMKQDQRLTVLLNKKDKHLSLRIADTQTGDSAIYFCAESVGYGGSQGNLIFGKGTKLSVKP
Vbeta: KAGVTQTPRYLIKTRGQQVTLSCSPISGHRSVSWYQQTPGQGLQFLFEYFSETQRNKGNFPGRFSGRQFSNSRSEMNVSTLELGDSALYLCASSLEAGSFYEQYFGPGTRLTVT
B8: nwTCR-1906 (TCR, V domains shown)
Valpha: RKEVEQDPGPFNVPEGATVAFNCTYSNSASQSFFWYRQDCRKEPKLLMSVYSSGNEDGRFTAQLNRASQYISLLIRDSKLSDSATYLCVVTQAGTALIFGKGTTLSVSS
Vbeta: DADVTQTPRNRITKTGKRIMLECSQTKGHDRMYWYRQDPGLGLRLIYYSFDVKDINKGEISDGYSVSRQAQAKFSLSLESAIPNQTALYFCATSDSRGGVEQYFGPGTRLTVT
B9: nwTCR-2583 (TCR, V domains shown)
Valpha: GQSLEQPSEVTAVEGAIVQINCTYQTSGFYGLSWYQQHDGGAPTFLSYNALDGLEETGRFSSFLSRSDSYGYLLLQELQMKDSASYFCALGTEDKIIFGKGTRLHILP
Vbeta: EAQVTQNPRYLITVTGKKLTVTCSQNMNHEYMSWYRQDPGLGLRQIYYSMNVEVTDKGDVPEGYKVSRKEKRNFPLILESPSPNQTSLYFCASRISLGANYGYTFGSGTRLTVV
B10: nwTCR-2523 (TCR, V domains shown)
Valpha: RKEVEQDPGPFNVPEGATVAFNCTYSNSASQSFFWYRQDCRKEPKLLMSVYSSGNEDGRFTAQLNRASQYISLLIRDSKLSDSATYLCVVNRGSQGNLIFGKGTKLSVKP
Vbeta: DAGVTQSPTHLIKTRGQQVTLRCSPKSGHDTVSWYQQALGQGPQFIFQYYEEEERQRGNFPDRFSGHQFPNYSSELNVNALLLGDSALYLCASSLVDYEQYFGPGTRLTVT
B11: nwTCR-2555 (TCR, V domains shown)
Valpha: AQSVSQHNHHVILSEAASLELGCNYSYGGTVNLFWYVQYPGQHLQLLLKYFSGDPLVKGIKGFEAEFIKSKFSFNLRKPSVQWSDTAEYFCAVKMDSSYKLIFGSGTRLLVRP
Vbeta: DGGITQSPKYLFRKEGQNVTLSCEQNLNHDAMYWYRQDPGQGLRLIYYSQIVNDFQKGDIAEGYSVSREKKESFPLTVTSAQKNPTAFYLCASLGLNYNEQFFGPGTRLTVL
B12: nwTCR-1954 (TCR, V domains shown)
Valpha: QKEVEQNSGPLSVPEGAIASLNCTYSDRGSQSFFWYRQYSGKSPELIMSIYSNGDKEDGRFTAQLNKASQYVSLLIRDSQPSDSATYLCAVLRSNDYKLSFGAGTTVTVRA
Vbeta: EAQVTQNPRYLITVTGKKLTVTCSQNMNHEYMSWYRQDPGLGLRQIYYSMNVEVTDKGDVPEGYKVSRKEKRNFPLILESPSPNQTSLYFCASSPGTSGNEQFFGPGTRLTVL
B13: nwTCR-2383 (TCR, V domains shown)
Valpha: GIQVEQSPPDLILQEGANSTLRCNFSDSVNNLQWFHQNPWGQLINLFYIPSGTKQNGRLSATTVATERYSLLYISSSQTTDSGVYFCAVMPSGTYKYIFGTGTRLKVLA
Vbeta: B12 Vbeta with G96S, T97S, S98G, G99Y
B14: nwTCR-2720 (TCR, V domains shown)
Valpha: SQQGEEDPQALSIQEGENATMNCSYKTSINNLQWYRQNSGRGLVHLILIRSNEREKHSGRLRVTLDTSKKSSSLLITASRAADTASYFCATDLSGAGSYQLTFGKGTKLSVIP
Vbeta: B12 Vbeta with P95L, S98G, G99F, N100G, Q102L, P106E, T108S
B15: nwTCR-2157 (TCR, V domains shown)
Valpha: QKEVEQNSGPLSVPEGAIASLNCTYSDRGSQSFFWYRQYSGKSPELIMFIYSNGDKEDGRFTAQLNKASQYVSLLIRDSQPSDSATYLCAVPGGTSYGKLTFGQGTILTVHP
Vbeta: DTAVSQTPKYLVTQMGNDKSIKCEQNLGHDTMYWYKQDSKKFLKIMFSYNNKELIINETVPNRFSPKSPDKAHLNLHINSLELGDSAVYFCASSQGISGNTIYFGEGSWLTVV
B16: nwTCR-2169 (TCR, V domains shown)
Valpha: SQQGEEDPQALSIQEGENATMNCSYKTSINNLQWYRQNSGRGLVHLILIRSNEREKHSGRLRVTLDTSKKSSSLLITASRAADTASYFCATLTLNDYKLSFGAGTTVTVRA
Vbeta: EAQVTQNPRYLITVTGKKLTVTCSQNMNHEYMSWYRQDPGLGLRQIYYSMNVEVTDKGDVPEGYKVSRKEKRNFPLILESPSPNQTSLYFCATQWASGSTDTQYFGPGTRLTVL
B17: nwTCR-2228 (TCR, V domains shown)
Valpha: QKEVEQNSGPLSVPEGAIASLNCTYSDRGSQSFFWYRQYSGKSPELIMFIYSNGDKEDGRFTAQLNKASQYVSLLIRDSQPSDSATYLCAGHTGNQFYFGTGTSLTVIP
Vbeta: EPEVTQTPSHQVTQMGQEVILRCVPISNHLYFYWYRQILGQKVEFLVSFYNNEISEKSEIFDDQFSVERPDGSNFTLKIRSTKLEDSAMYFCASREDGYEQYFGPGTRLTVT
B18: nwTCR-1953 (TCR, V domains shown)
Valpha: DAKTTQPNSMESNEEEPVHLPCNHSTISGTDYIHWYRQLPSQGPEYVIHGLTSNVNNRMASLAIAEDRKSSTLILHRATLRDAAVYYCILRAGGSGDKLTFGTGTRLAVRP
Vbeta: DTEVTQTPKHLVMGMTNKKSLKCEQHMGHRAMYWYKQKAKKPPELMFVYSYEKLSINESVPSRFSPECPNSSLLNLHLHALQPEDSALYLCASSQDPFWGAGELFFGEGSRLTVL
B19: nwTCR-2006 (TCR, V domains shown)
Valpha: AQSVTQLDSHVSVSEGTPVLLRCNYSSSYSPSLFWYVQHPNKGLQLLLKYTSAATLVKGINGFEAEFKKSETSFHLTKPSAHMSDAAEYFCVVSITGFQKLVFGTGTRLLVSP
Vbeta: GAVVSQHPSRVICKSGTSVKIECRSLDFQATTMFWYRQFPKQSLMLMATSNEGSKATYEQGVEKDKFLINHASLTLSTLTVTSAHPEDSSFYICSATEDNEKLFFGSGTQLSVL
B20: nwTCR-2170 (TCR, V domains shown)
Valpha: GQQLNQSPQSMFIQEGEDVSMNCTSSSIFNTWLWYKQDPGEGPVLLIALYKAGELTSNGRLTAQFGITRKDSFLNISASIPSDVGIYFCAGQASGTYKYIFGTGTRLKVLA
Vbeta: EAQVTQNPRYLITVTGKKLTVTCSQNMNHEYMSWYRQDPGLGLRQIYYSMNVEVTDKGDVPEGYKVSRKEKRNFPLILESPSPNQTSLYFCASSSGTSDEQYFGPGTRLTVT
B21: nwTCR-2719 (TCR, V domains shown)
Valpha: B13 Valpha with M90L, P91A, S92P
Vbeta: B20 Vbeta with S95W, T97S, S98G, D99Y
B22: nwTCR-2285 (TCR, V domains shown)
Valpha: KNEVEQSPQNLTAQEGEFITINCSYSVGISALHWLQQHPGGGIVSLFMLSSGKKKHGRLIATINIQEKHSSLHITASHPRDSAVYICALNSDSNYQLIWGAGTKLIIKP
Vbeta: B20 Vbeta with S93T, S95P, S98L, D99Y

Target: T1, PRAME peptide on HLA-A*02:01
Assay: multimer staining

Row | binding result | Binder
1 | recognises | B1
2 | recognises | B2
3 | recognises | B3
4 | recognises | B4
5 | recognises | B5
6 | recognises | B6
7 | recognises | B7
8 | recognises | B8
9 | recognises | B9
10 | recognises | B10
11 | recognises | B11
12 | recognises | B12
13 | recognises | B13
14 | recognises | B14
15 | recognises | B15
16 | recognises | B16
17 | recognises | B17
18 | recognises | B18
19 | recognises | B19
20 | recognises | B20
21 | recognises | B21
22 | recognises | B22
